From patent US20260144882A1 (BIO THERA SOLUTIONS, published 2026)
Several values for one entry are separate records, joined by “and”; a condition that tells them apart may be missing. Identical values can stand only once. Like-named read-outs stand apart in the source and are kept apart here.

Legend:
[1] = target: T1, human Nectin-4 extracellular antigen hNectin-4-His (human, UniProt Q96NY8 32-349); assay: ELISA, coated hNectin-4-His
T1 construct: C-terminal 8xHis tag included
T1 sequence: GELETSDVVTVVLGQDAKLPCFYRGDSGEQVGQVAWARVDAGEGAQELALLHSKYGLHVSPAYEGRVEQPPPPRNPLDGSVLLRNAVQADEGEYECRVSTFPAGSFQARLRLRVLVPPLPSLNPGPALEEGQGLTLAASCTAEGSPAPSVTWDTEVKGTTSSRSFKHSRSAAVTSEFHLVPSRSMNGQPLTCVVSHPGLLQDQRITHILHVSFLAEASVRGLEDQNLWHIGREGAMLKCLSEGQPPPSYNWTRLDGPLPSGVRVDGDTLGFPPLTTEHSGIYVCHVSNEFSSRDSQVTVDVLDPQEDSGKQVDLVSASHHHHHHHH
Source text: (§1) The binding activity of the antibodies was detected by ELISA.

[2] = target: T1, human Nectin-4 extracellular antigen …; assay: SPR, antibody on Protein A chip, hNectin-4-His analyte, 1:1 fit
Source text: (§2) In this study, the affinity of the antibodies for the human Nectin-4 extracellular antigen was detected by surface plasmon resonance (SPR) technique (BIAcore: GE Healthcare, T200).

[3] = target: T2, monkey cNectin-4 protein (ACRO, NE4-C52H4) (cynomolgus monkey, UniProt A0A2K5WES1 32-349); assay: ELISA, coated antigen
T2 construct: bought; construct not described; also called cynomolgus monkey Nectin-4
T2 sequence: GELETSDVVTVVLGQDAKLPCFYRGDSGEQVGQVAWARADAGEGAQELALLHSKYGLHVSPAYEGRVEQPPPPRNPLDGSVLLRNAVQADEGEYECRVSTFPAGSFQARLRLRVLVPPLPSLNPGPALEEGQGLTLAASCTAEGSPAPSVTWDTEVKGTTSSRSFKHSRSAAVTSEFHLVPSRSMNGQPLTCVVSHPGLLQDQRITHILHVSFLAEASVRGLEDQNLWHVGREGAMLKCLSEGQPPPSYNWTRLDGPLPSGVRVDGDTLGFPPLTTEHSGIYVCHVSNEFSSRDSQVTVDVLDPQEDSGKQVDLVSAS

[4] = target: T1, human Nectin-4 extracellular antigen …; assay: ELISA, coated antigen
[5] = target: T3, mouse mNectin-4 protein (ACRO, NE4-M52H3) (mouse, UniProt Q8R007 31-347); assay: ELISA, coated antigen
T3 construct: bought; construct not described; also called mouse Nectin-4
T3 sequence (looked up): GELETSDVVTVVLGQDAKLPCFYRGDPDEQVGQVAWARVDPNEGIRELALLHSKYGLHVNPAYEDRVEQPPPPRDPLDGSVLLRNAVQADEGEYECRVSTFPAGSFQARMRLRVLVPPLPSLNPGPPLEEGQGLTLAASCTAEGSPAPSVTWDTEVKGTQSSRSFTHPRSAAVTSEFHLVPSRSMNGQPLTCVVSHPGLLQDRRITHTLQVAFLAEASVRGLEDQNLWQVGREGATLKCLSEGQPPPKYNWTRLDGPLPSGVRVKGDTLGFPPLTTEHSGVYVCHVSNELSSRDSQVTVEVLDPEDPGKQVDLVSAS

[6] = target: T1, human Nectin-4 extracellular antigen …; assay: ELISA, coated hNectin-4-His; remark: listed apart in the source
Source text: as §1

[7] = target: T1, human Nectin-4 extracellular antigen …; assay: ELISA, coated hNectin-4-His; remark: listed apart in the source
Source text: as §1

[8] = target: T1, human Nectin-4 extracellular antigen …; assay: SPR (BIAcore T200): antibody captured on a Protein A chip, hNectin-4-His injected at 0-100 nM, 1:1 fit. The sheet prints no unit; M is taken from the column head of Table 12 for the same fits. Table 12 prints 6.03E-09 for ASG-22, so the sheet's number differs from the text.
Source text: as §2

[9] = target: T1, human Nectin-4 extracellular antigen …; assay: SPR, antibody on Protein A chip, 1:1 fit
Source text: as §2

[10] = target: T4, human Nectin-4, full length on cells (human, UniProt Q96NY8 32-510); assay: flow cytometry, T-47D cells, antibody bound on ice, 0 h at 37 C
T4 construct: whole, on cells; T-47D cells positive for Nectin-4 expression; also called Nectin-4 on T-47D cells; CHO-Nectin-4
T4 sequence (looked up): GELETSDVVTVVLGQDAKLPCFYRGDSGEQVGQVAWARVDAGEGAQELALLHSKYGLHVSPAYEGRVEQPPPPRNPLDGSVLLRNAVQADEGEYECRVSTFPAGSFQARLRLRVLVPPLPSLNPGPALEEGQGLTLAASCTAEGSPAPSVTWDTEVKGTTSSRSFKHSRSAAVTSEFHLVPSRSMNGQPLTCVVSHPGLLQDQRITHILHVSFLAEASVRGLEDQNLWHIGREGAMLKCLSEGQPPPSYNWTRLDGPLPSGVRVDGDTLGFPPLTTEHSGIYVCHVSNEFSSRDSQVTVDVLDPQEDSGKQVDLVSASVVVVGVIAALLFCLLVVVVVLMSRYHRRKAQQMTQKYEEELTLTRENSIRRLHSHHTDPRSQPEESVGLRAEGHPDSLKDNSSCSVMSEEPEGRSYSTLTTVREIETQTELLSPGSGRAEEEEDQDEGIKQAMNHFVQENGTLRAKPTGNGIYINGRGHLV
Procedure: (§3) In this assay, the relative amount of antibodies remaining on the cell surface after co-incubation at 37° C. for a certain period of time was detected by FACS to reflect the endocytosis efficiency. The procedures are briefly described as follows: T-47D cells (human ductal breast cancer cells, derived from the Cell Bank of Chinese Academy of Sciences, Cat.No. TCHu 87); the antibodies of interest were adjusted to 10 µg/mL and co-incubated with the cells on ice for 1 h; the cells were washed 3 times with pre-cooled PBS, and then placed at 37° C. and incubated for 0 h, 2 h and 4 h; 0.2% N₃Na was added to stop the endocytosis reaction; the cells were washed with PBS thrice, followed by the addition of the PE-labeled anti-human Fc secondary antibody (Invitrogen 12-4998-82); the cells were incubated at 4° C. for 30 min; the red fluorescence signal was detected on a flow cytometer.

[11] = target: T4, human Nectin-4, full length on cells; assay: flow cytometry on T-47D cells
Procedure: In this study, the binding activity of different antibodies to T-47D cells positive for Nectin-4 expression was detected by FACS, and the EC₅₀ for the binding of antibodies to the cells was analyzed by a four-parameter method. The procedures are briefly described as follows: T-47D cells (the Cell Bank of Chinese Academy of Sciences, TCHu 87) were trypsinized; the antibodies were serially diluted and co-incubated with T-47D cells at 4° C. for 0.5-1 h, followed by the addition of the secondary PE-labeled anti-human Fc antibody (Invitrogen, 12-4998-82); the signal intensity of red fluorescence was detected on a flow cytometer, and curves were plotted using Graphpad Prism and the EC₅₀ was calculated.

[12] = target: T4, human Nectin-4, full length on cells; assay: flow cytometry, T-47D cells, antibody bound on ice, 0 h at 37 C; remark: listed apart in the source
Procedure: as §3

[13] = target: T1, human Nectin-4 extracellular antigen …; assay: ELISA, coated antigen; remark: listed apart in the source
Source text: as §1
In this assay, the binding of different antibodies to human Nectin-4 homologous proteins hNectin-1 (ACRO, PV1-H5223), hNectin-2 (ACRO, PV2-H52E2), hNectin-3 (ACRO, PV3-H52E4), and hNectin-4-His was detected by ELISA to determine the specificity of the antibodies. For the methodology and procedures, see Example 4. Antigens of interest ([…]) were immobilized; after blocking, serially diluted antibodies (2-fold serially diluted from […]) were added, and HRP-labeled anti-human-Kappa secondary antibody was added for chromogenic reaction.

B1: reference antibody ASG-22 (antibody, human IgG1, kappa, V domains shown)
VH: EVQLVESGGGLVQPGGSLRLSCAASGFTFSSYNMNWVRQAPGKGLEWVSYISSSSSTIYYADSVKGRFTISRDNAKNSLSLQMNSLRDEDTAVYYCARAYYYGMDVWGQGTLVTVSS
VL: DIQMTQSPSSVSASVGDRVTITCRASQGISGWLAWYQQKPGKAPKFLIYAASTLQSGVPSRFSGSGSGTDFTLTISSLQPEDFATYYCQQANSFPPTFGGGTKVEIKR
EC50 [1]: 0.042 µg/mL and 0.046 µg/mL
Kd [2]: 6.03 nM
koff [2]: 0.00436 s⁻¹
kon [2]: 723000 M⁻¹ s⁻¹
EC50 [3]: 0.033 µg/mL
EC50 [4]: 0.035 µg/mL
EC50 [5]: 1.23 µg/mL
EC50 [6]: 0.042 µg/mL
EC50 [7]: 0.019 µg/mL
Kd [8]: 6.68 nM
Kd [9]: 10.1 nM and 10.9 nM
koff [9]: 0.00581 s⁻¹ and 0.0059 s⁻¹
kon [9]: 577000 M⁻¹ s⁻¹ and 540000 M⁻¹ s⁻¹
MFI (mean fluorescence intensity) 0 h [10]: 107000 MFI
EC50 [11]: 0.118 µg/mL and 0.788 nM
MFI (mean fluorescence intensity) 0 h [12]: 58600 MFI

B2: antibody 1F3-1G11 (antibody, human IgG1, kappa, V domains shown)
VH: EVQLVESGGGLVQPGGSLRLSCAASGYSFTGYGMSWVRQAPGKGLEWVSGISPSGGTIGYADSVKGRFTISRDNSKNTLYLQMNSLRAEDTAVYYCARAELLAFDVYTASDYWGQGTLVTVSS
VL: DIQMTQSPSSLSASVGDRVTITCRASQGISSYLAWYQQKPGKAPKLLIYAASSLQSGVPSRFSGSGSGTDFTLTISSLQPEDFATYYCQQHYTTPPTFGQGTKVEIKR
EC50 [7]: 0.007 µg/mL
Kd [9]: 0.815 nM
koff [9]: 0.00115 s⁻¹
kon [9]: 1.41e+06 M⁻¹ s⁻¹
MFI (mean fluorescence intensity) 0 h [12]: 60500 MFI

B3: antibody 1F3-2F3 (antibody, human IgG1, kappa, V domains shown)
VH: EVQLVESGGGLVQPGGSLRLSCAASGFNFSDYGMSWVRQAPGKGLEWVSRIDWDGGNTRYADSVKGRFTISRDNSKNTLYLQMNSLRAEDTAVYYCARAELLAFDVYTASDYWGQGTLVTVSS
VL: DIQMTQSPSSLSASVGDRVTITCRASQGISSYLAWYQQKPGKAPKLLIYAASSLQSGVPSRFSGSGSGTDFTLTISSLQPEDFATYYCQQHYTTPPTFGQGTKVEIKR
EC50 [7]: 0.011 µg/mL
Kd [9]: 0.37 nM
koff [9]: 0.000519 s⁻¹
kon [9]: 1.4e+06 M⁻¹ s⁻¹
MFI (mean fluorescence intensity) 0 h [12]: 69000 MFI

B4: antibody 10A4 (antibody, human IgG1, kappa, V domains shown)
VH: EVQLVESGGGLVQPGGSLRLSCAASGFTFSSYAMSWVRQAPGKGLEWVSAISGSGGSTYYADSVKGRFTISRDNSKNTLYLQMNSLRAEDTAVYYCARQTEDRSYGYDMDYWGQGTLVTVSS
VL: DIQMTQSPSSLSASVGDRVTITCRASQGISSYLAWYQQKPGKAPKLLIYAASSLQSGVPSRFSGSGSGTDFTLTISSLQPEDFATYYCQQHYTTPPTFGQGTKVEIKR
Kd [2]: 6.71 nM
koff [2]: 0.00232 s⁻¹
kon [2]: 346000 M⁻¹ s⁻¹
EC50 [6]: 0.041 µg/mL
MFI (mean fluorescence intensity) 0 h [10]: 107000 MFI

B5: antibody 1B4 (antibody, human IgG1, kappa, V domains shown)
VH: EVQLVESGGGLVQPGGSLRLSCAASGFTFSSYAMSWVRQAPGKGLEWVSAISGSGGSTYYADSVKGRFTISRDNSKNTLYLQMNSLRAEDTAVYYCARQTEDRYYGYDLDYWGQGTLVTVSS
VL: DIQMTQSPSSLSASVGDRVTITCRASQGISSYLAWYQQKPGKAPKLLIYAASSLQSGVPSRFSGSGSGTDFTLTISSLQPEDFATYYCQQHYTTPPTFGQGTKVEIKR
Kd [2]: 5.33 nM
koff [2]: 0.0032 s⁻¹
kon [2]: 600000 M⁻¹ s⁻¹
EC50 [6]: 0.025 µg/mL
MFI (mean fluorescence intensity) 0 h [10]: 108000 MFI

B6: antibody 1G7 (antibody, human IgG1, kappa, V domains shown)
VH: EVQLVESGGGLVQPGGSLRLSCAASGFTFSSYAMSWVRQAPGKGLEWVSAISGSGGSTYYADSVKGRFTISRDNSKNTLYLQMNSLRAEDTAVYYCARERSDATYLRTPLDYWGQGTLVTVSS
VL: DIQMTQSPSSLSASVGDRVTITCRASQGISSYLAWYQQKPGKAPKLLIYAASSLQSGVPSRFSGSGSGTDFTLTISSLQPEDFATYYCQQHYTTPPTFGQGTKVEIKR
Kd [2]: 16.7 nM
koff [2]: 0.00631 s⁻¹
kon [2]: 377000 M⁻¹ s⁻¹
EC50 [6]: 0.022 µg/mL

B7: antibody 3A10 (antibody, human IgG1, kappa, V domains shown)
VH: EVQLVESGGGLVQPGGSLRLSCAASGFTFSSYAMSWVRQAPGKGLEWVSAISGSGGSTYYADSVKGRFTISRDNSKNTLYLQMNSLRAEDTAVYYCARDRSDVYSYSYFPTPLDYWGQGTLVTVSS
VL: DIQMTQSPSSLSASVGDRVTITCRASQGISSYLAWYQQKPGKAPKLLIYAASSLQSGVPSRFSGSGSGTDFTLTISSLQPEDFATYYCQQHYTTPPTFGQGTKVEIKR
Kd [2]: 2.1 nM
koff [2]: 0.000867 s⁻¹
kon [2]: 413000 M⁻¹ s⁻¹
EC50 [3]: 0.042 µg/mL
EC50 [4]: 0.037 µg/mL
EC50 [5]: 0.037 µg/mL
EC50 [6]: 0.068 µg/mL
MFI (mean fluorescence intensity) 0 h [10]: 105000 MFI
EC50 [11]: 0.186 µg/mL and 1.24 nM
EC50 [13]: 0.062 µg/mL

B8: antibody 1G12 (antibody, human IgG1, kappa, V domains shown)
VH: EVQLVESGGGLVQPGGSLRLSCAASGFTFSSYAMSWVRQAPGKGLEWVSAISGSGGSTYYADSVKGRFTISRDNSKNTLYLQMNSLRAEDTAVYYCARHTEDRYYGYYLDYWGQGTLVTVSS
VL: DIQMTQSPSSLSASVGDRVTITCRASQGISSYLAWYQQKPGKAPKLLIYAASSLQSGVPSRFSGSGSGTDFTLTISSLQPEDFATYYCQQHYTTPPTFGQGTKVEIKR
Kd [2]: 8.61 nM
koff [2]: 0.00464 s⁻¹
kon [2]: 539000 M⁻¹ s⁻¹
EC50 [6]: 0.073 µg/mL
